For data set [1], the target named is T1, IRF4-C99R DBD;JUNB DBD;BATF DBD (human;human;human, UniProt Q15306;P17275;Q16520 20-139;269-329;28-87, C99R||).
T1 sequence 1: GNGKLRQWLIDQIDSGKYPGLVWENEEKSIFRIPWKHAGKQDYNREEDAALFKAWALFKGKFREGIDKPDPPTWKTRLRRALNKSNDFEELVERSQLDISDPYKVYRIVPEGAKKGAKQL
T1 sequence 2: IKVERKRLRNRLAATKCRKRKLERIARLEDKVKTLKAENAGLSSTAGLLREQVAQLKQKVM
T1 sequence 3: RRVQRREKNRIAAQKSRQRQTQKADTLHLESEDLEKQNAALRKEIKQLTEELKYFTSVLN
The data set can be described thus: EMSA; IRF4 composite complex abolished; EMSA: 10 mM HEPES pH 7.9, 70 mM KCl, 5 mM DTT, 1 mM EDTA, 2.5 mM MgCl2, 4% Ficoll, 0.5 mg/ml BSA, 0.1 ug/ml poly(dI-dC); 3-5 ug nuclear extract; temperature not stated. To be noted: protein: recombinant;recombinant;recombinant; copies: 1;1;1; label: 32P-dCTP Klenow end label; 5' overhang 2 nt before Klenow labeling. A general note: Mobility shift assays separate free from complexed probe on a gel.

Data set [2] concerns the target T1, IRF4-C99R DBD;JUNB DBD;BATF DBD. The data set can be described thus: EMSA; short or long probe not certain; EMSA: 10 mM HEPES pH 7.9, 70 mM KCl, 5 mM DTT, 1 mM EDTA, 2.5 mM MgCl2, 4% Ficoll, 0.5 mg/ml BSA, 0.1 ug/ml poly(dI-dC); 3-5 ug nuclear extract; temperature not stated. The note with it: protein: recombinant;recombinant;recombinant; copies: 1;1;1; label: 32P-dCTP Klenow end label; 5' overhang 4 nt before Klenow labeling.

In data set [3] the target is T2, IRF4-WT DBD;JUNB DBD;BATF DBD (human;human;human, UniProt Q15306;P17275;Q16520 20-139;269-329;28-87, ||).
T2 sequence 1: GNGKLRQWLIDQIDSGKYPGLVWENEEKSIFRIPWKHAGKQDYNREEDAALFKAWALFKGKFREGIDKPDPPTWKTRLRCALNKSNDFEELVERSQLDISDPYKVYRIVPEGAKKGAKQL
T2 sequence 2: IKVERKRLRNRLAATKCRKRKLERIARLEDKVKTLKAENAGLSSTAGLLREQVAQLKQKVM
T2 sequence 3: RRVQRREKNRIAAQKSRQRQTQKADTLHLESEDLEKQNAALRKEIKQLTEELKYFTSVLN
The description is as above. To be noted: protein: recombinant;recombinant;recombinant; copies: 1;1;1; label: 32P-dCTP Klenow end label; 5' overhang 4 nt before Klenow labeling.

B1: AICE2FLIP short IRFmut (dsDNA)
DNA 1: AGTGCATGTATGAGTCAGAGATC
DNA 2: AGGATCTCTGACTCATACATGCA
Regarding B1, the binding result in data set [1] was “no binding”.

B2: AICE2 (Bcl11b) short, IRF motif tAcA (dsDNA)
DNA 1: AGTGCATACATGAGTCAGAGATC
DNA 2: AGGATCTCTGACTCATGTATGCA
In the case of B2, the binding result in data set [1] is “no binding”.

B3: AICE2 (Bcl11b) (dsDNA)
DNA 1: AGCTTAGTGCAGAAATGAGTCAGAGATCAAAGAAG
DNA 2: AGCTCTTCTTTGATCTCTGACTCATTTCTGCACTA
As to B3, the binding result in data set [2] is “binds”.

B4: AICE2FLIP (AICE2 5'TTTC) (dsDNA)
DNA 1: AGCTTAGTGCATTTCTGAGTCAGAGATCAAAGAAG
DNA 2: AGCTCTTCTTTGATCTCTGACTCAGAAATGCACTA
For the molecule B4, the binding result in data set [2] is reported as “binds”; in data set [3] it was “no binding”.

(Values after PMC10630337, “Transcriptional reprogramming by mutated IRF4 in lymphoma”.)
